The numbers were not newly measured in article PMC4257090, which cites them from elsewhere.

Series [1] addresses SecA (membrane-bound) (Escherichia coli) (UniProt P10408).
The target of series [2] is SecA (soluble) (Escherichia coli) (UniProt P10408).
Series [3] addresses SecA (membrane-bound) (Escherichia coli) (UniProt P10408). The source holds these as a separate data set.

pKd: −log10 of the molar value. Like-named read-outs stand apart in the source and are kept apart here.

Turning to SecB (from UniProt P0AG86), the pKd (commonly the Kd on a negative log10 scale, so that one unit is a factor of ten) in series [1] is 8.00; in series [2], 5.82; in series [3] it was 7.52.
